Laboratory results as given in the supplement of paper PMC9112550, “Optimization of the antimicrobial peptide Bac7 by deep mutational scanning” (BMC Biology, 2022).

Each sequence was assayed on Escherichia coli TOP10 (assay: shrunken log2 fold change of peptide-encoding DNA abundance (4.5 h post-induction vs induction); higher = less antimicrobial activity (less host growth inhibition)). Conditions: time post-induction: 4.5 h; library: site-saturation at positions 5, 18, 19, 20.
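Also: peptides expressed intracellularly from a pBAD plasmid library in pooled LB shake-flask culture, induced with 0.3% L-arabinose, DNA abundance read by NGS, three biological replicates, DESeq2 with apeglm shrinkage.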

Sequence	shrunken log2 fold change
RRIRKRPPRLPRPRPRPLCTPRP	0.179
RRIRTRPPRLPRPRPRPVHFPRP	0.218
RRIRRRPPRLPRPRPRPVAQPRP	0.324
RRIRGRPPRLPRPRPRPMTLPRP	0.509
RRIRIRPPRLPRPRPRPAVYPRP	-0.825
RRIRGRPPRLPRPRPRPWFVPRP	-0.314
RRIRWRPPRLPRPRPRPNIGPRP	0.138
RRIRVRPPRLPRPRPRPKIWPRP	0.0958
RRIRCRPPRLPRPRPRPCKTPRP	-0.0345
RRIRARPPRLPRPRPRPLREPRP	1.16
RRIRWRPPRLPRPRPRPGAQPRP	0.655
RRIRCRPPRLPRPRPRPAFDPRP	0.253
RRIRARPPRLPRPRPRPQKWPRP	0.301
RRIRQRPPRLPRPRPRPKFEPRP	-0.0683
RRIRLRPPRLPRPRPRPEQRPRP	0.0422
RRIRLRPPRLPRPRPRPTFYPRP	-0.273
RRIRARPPRLPRPRPRPHNCPRP	-0.162
RRIRGRPPRLPRPRPRPANAPRP	0.694
RRIRNRPPRLPRPRPRPDKFPRP	-0.188
RRIRFRPPRLPRPRPRPREKPRP	-0.0136
RRIRARPPRLPRPRPRPNFHPRP	0.0254
RRIRLRPPRLPRPRPRPFEIPRP	0.0206

Sequence	shrunken log2 fold change
RRIRNRPPRLPRPRPRPECCPRP	0.517
RRIRSRPPRLPRPRPRPKPRPRP	0.594
RRIRARPPRLPRPRPRPEWNPRP	0.76
RRIRHRPPRLPRPRPRPFWPPRP	0.131
RRIRGRPPRLPRPRPRPPKEPRP	0.176
RRIRQRPPRLPRPRPRPQTCPRP	0.0348
RRIRWRPPRLPRPRPRPCSPPRP	-0.106
RRIRCRPPRLPRPRPRPGKTPRP	0.102
RRIRFRPPRLPRPRPRPFEMPRP	-0.0734
RRIRFRPPRLPRPRPRPWNNPRP	-0.0242
RRIRFRPPRLPRPRPRPCDQPRP	-0.0178
RRIRARPPRLPRPRPRPPWDPRP	0.72
RRIRHRPPRLPRPRPRPFINPRP	-0.205
RRIRYRPPRLPRPRPRPFSSPRP	0.015
RRIRMRPPRLPRPRPRPQKLPRP	0.0146
RRIRTRPPRLPRPRPRPPDDPRP	0.408
RRIRVRPPRLPRPRPRPCPHPRP	-0.0391
RRIRERPPRLPRPRPRPWVEPRP	0.0665
RRIRRRPPRLPRPRPRPKVMPRP	0.16
RRIRQRPPRLPRPRPRPVGNPRP	-0.108
RRIRFRPPRLPRPRPRPTSCPRP	-0.0685
RRIRYRPPRLPRPRPRPNNPPRP	-0.359

Sequence	shrunken log2 fold change
RRIRGRPPRLPRPRPRPYMCPRP	0.0864
RRIRFRPPRLPRPRPRPVPLPRP	-0.118
RRIRFRPPRLPRPRPRPNPEPRP	-0.197
RRIRYRPPRLPRPRPRPGMAPRP	-0.262
RRIRKRPPRLPRPRPRPFQKPRP	0.0267
RRIRVRPPRLPRPRPRPRSAPRP	0.258
RRIRLRPPRLPRPRPRPTSGPRP	0.0882
RRIRERPPRLPRPRPRPSYYPRP	-0.126
RRIRLRPPRLPRPRPRPRVIPRP	0.0615
RRIRIRPPRLPRPRPRPKPPPRP	0.269
RRIRQRPPRLPRPRPRPHDYPRP	-0.00281
RRIRRRPPRLPRPRPRPRKCPRP	0.22
RRIRRRPPRLPRPRPRPKPIPRP	0.357
RRIRTRPPRLPRPRPRPDHNPRP	-0.471
RRIRMRPPRLPRPRPRPGFMPRP	0.0795
RRIRARPPRLPRPRPRPLLMPRP	0.384
RRIRTRPPRLPRPRPRPQPCPRP	-0.0212
RRIRLRPPRLPRPRPRPLQQPRP	0.0442
RRIRQRPPRLPRPRPRPADPPRP	0.209
RRIRCRPPRLPRPRPRPDIVPRP	-0.0875
RRIRLRPPRLPRPRPRPGEDPRP	0.121
RRIRNRPPRLPRPRPRPSKTPRP	-0.454

Sequence	shrunken log2 fold change
RRIRFRPPRLPRPRPRPIKWPRP	-0.101
RRIRHRPPRLPRPRPRPFYHPRP	-0.126
RRIRTRPPRLPRPRPRPLLCPRP	-0.413
RRIRMRPPRLPRPRPRPDFMPRP	-0.0119
RRIRRRPPRLPRPRPRPNAIPRP	-0.116
RRIRPRPPRLPRPRPRPYRFPRP	-0.261
RRIRLRPPRLPRPRPRPFTTPRP	0.0966
RRIRNRPPRLPRPRPRPWRDPRP	-0.342
RRIRLRPPRLPRPRPRPIYEPRP	-0.291
RRIRDRPPRLPRPRPRPKHRPRP	0.114
RRIRSRPPRLPRPRPRPVCAPRP	0.386
RRIRDRPPRLPRPRPRPMYVPRP	-0.243
RRIRYRPPRLPRPRPRPKQRPRP	-0.106
RRIRMRPPRLPRPRPRPVMRPRP	0.305
RRIRHRPPRLPRPRPRPHYRPRP	-0.0219
RRIRYRPPRLPRPRPRPRGCPRP	-0.286
RRIRDRPPRLPRPRPRPKGQPRP	0.116
RRIRRRPPRLPRPRPRPKHFPRP	0.3
RRIRRRPPRLPRPRPRPEDYPRP	0.252
RRIRCRPPRLPRPRPRPYGPPRP	-0.398
RRIRMRPPRLPRPRPRPVWWPRP	-0.0717
RRIRVRPPRLPRPRPRPYGHPRP	-0.0167

Sequence	shrunken log2 fold change
RRIRQRPPRLPRPRPRPAELPRP	-0.00135
RRIRFRPPRLPRPRPRPWCKPRP	-0.0278
RRIRWRPPRLPRPRPRPVPVPRP	0.271
RRIRARPPRLPRPRPRPFHMPRP	-1.05
RRIRERPPRLPRPRPRPPYHPRP	-0.456
RRIRGRPPRLPRPRPRPFVLPRP	-0.000308
RRIRVRPPRLPRPRPRPYYGPRP	-0.203
RRIRMRPPRLPRPRPRPLPRPRP	2.48
RRIRNRPPRLPRPRPRPPVHPRP	-0.148
RRIRTRPPRLPRPRPRPNKYPRP	-0.76
RRIRFRPPRLPRPRPRPWDWPRP	0.149
RRIRHRPPRLPRPRPRPDYLPRP	-0.998
RRIRSRPPRLPRPRPRPQLIPRP	-0.0943
RRIRIRPPRLPRPRPRPLMMPRP	-1.03
RRIRWRPPRLPRPRPRPVSRPRP	0.616
RRIRSRPPRLPRPRPRPVQAPRP	0.0475
RRIRMRPPRLPRPRPRPLVVPRP	0.0644
RRIRHRPPRLPRPRPRPMLHPRP	0.195
RRIRERPPRLPRPRPRPYVQPRP	-0.0184
RRIRYRPPRLPRPRPRPSRMPRP	-0.303
RRIRQRPPRLPRPRPRPCGKPRP	-0.116
